This note sets out measurements from article doi:10.1101/2023.07.18.549520.

As usually defined, the Kd is the concentration at which binding is half-saturated. The term stoichiometry N denotes a count of units in the complex or per binding partner.

Assay [1] has as its target soluble type I collagen (acid-soluble type I atelocollagen from bovine hides) (bovine) (UniProt P02453). Description: ELISA. (An ELISA detects its analyte on a solid surface through an enzyme-linked reagent.)
Assay [2] concerns the target type I gelatin (heat-denatured acid-soluble type I atelocollagen from bovine hides) (bovine) (UniProt P02453). Description: ELISA.
Assay [3] addresses V-domain of Scl2.3 (Streptococcus pyogenes). The assay can be described thus: SDS-PAGE.

soluble type I collagen (acid-soluble type I atelocollagen from bovine hides) (bovine), sequence (P02453 162-1217, chain 1 of 2): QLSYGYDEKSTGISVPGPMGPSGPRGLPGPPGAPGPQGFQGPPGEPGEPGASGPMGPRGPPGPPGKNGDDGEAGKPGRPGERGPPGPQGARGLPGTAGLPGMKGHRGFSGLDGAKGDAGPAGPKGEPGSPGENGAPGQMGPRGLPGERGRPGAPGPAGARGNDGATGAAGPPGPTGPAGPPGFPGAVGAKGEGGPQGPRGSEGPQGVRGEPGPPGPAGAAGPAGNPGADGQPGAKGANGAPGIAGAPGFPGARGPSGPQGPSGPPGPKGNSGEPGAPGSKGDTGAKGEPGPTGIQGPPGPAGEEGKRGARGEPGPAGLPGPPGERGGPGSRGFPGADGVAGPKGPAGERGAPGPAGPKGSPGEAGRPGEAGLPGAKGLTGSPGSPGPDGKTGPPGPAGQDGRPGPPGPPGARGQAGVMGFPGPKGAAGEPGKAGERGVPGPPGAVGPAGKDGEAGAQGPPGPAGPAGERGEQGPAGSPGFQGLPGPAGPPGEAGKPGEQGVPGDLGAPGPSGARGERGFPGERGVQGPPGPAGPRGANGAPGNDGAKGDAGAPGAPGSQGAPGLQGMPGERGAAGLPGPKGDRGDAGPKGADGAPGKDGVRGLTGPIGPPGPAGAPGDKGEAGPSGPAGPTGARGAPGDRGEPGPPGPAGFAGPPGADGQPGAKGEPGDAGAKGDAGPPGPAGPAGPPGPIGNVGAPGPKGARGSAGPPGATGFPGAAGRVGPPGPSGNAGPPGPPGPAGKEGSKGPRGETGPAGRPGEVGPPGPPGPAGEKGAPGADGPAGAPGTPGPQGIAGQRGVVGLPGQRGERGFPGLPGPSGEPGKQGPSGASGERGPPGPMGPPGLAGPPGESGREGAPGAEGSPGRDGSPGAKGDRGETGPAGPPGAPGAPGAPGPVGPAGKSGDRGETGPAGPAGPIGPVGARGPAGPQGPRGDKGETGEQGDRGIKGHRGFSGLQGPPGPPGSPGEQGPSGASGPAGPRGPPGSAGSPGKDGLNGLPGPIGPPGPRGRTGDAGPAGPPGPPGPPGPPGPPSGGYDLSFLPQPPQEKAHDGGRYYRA
soluble type I collagen (acid-soluble type I atelocollagen from bovine hides) (bovine), sequence (P02465 80-1117, chain 2 of 2, further chain): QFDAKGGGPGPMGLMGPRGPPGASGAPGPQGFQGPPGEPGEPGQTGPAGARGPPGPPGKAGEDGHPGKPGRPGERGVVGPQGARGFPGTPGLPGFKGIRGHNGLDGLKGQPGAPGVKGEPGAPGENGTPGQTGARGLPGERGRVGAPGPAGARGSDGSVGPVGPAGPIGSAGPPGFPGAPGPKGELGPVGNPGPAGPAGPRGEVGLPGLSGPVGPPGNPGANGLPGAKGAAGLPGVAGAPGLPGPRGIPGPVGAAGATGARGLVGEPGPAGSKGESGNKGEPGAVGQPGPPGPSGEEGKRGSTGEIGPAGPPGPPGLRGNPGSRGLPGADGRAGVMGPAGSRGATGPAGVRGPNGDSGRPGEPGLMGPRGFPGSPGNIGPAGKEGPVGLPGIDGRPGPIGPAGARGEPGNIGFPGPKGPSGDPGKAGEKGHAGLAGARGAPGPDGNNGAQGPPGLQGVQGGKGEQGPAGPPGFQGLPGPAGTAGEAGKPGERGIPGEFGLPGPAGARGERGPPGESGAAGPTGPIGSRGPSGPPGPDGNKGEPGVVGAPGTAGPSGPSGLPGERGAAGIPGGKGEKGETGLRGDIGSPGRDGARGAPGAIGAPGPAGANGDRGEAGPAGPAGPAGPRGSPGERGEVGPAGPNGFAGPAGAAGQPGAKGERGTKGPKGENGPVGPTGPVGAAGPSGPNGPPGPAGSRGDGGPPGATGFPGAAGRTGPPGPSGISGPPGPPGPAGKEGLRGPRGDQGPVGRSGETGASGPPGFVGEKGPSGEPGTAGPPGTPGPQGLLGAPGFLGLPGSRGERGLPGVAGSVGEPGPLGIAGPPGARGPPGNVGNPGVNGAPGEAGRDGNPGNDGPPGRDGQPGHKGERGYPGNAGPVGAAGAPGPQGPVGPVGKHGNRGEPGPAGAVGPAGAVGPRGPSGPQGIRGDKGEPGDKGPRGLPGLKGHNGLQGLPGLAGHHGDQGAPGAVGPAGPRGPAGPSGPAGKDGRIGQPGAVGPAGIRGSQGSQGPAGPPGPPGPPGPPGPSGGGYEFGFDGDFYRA
type I gelatin (heat-denatured acid-soluble type I atelocollagen from bovine hides) (bovine), sequence (P02453 162-1217, chain 1 of 2): as the sequence (P02453 162-1217, chain 1 of 2) above
type I gelatin (heat-denatured acid-soluble type I atelocollagen from bovine hides) (bovine), sequence (P02465 80-1117, chain 2 of 2, further chain): as the sequence (P02465 80-1117, chain 2 of 2, further chain) above

With ColQ1-CU G472V (domain or fragment), the dissociation constant Kd in assay [1] and in assay [2] was 1600 nM in each case.

For the substance “ColQ1-CU G472V R169A (domain or fragment)”, in assay [1], the fold increase in affinity against ColQ1-CU G472V (WT) was 9 fold.

With “ColQ1-CU G472V Y173A (domain or fragment)”, the fold drop in binding affinity against ColQ1-CU G472V (WT) in assay [2] worked out at 15 fold.

With “ColQ1-CU G472V N226A (domain or fragment)”, the fold reduction in binding affinity against ColQ1-CU G472V (WT) in assay [1] is over 90 fold. The substance further had a fold drop in binding affinity against ColQ1-CU G472V (WT) in assay [2] of 90 fold.

With “ColG-CU E524A (Y119-G790) (domain or fragment)”, the equilibrium dissociation constant (Kd) in assay [1] turned out to be 370 nM; in assay [2] it was 80 nM.

Turning to V-domain of Scl2.3 (domain or fragment), in assay [3], the stoichiometry N is 3.

In turn, “ColQ1-CU G472V F176A (domain or fragment)” displayed a fold increase in affinity against ColQ1-CU G472V (WT) in assay [1] of 20 fold.

For “ColG-PD E524A (D398-G790) (domain or fragment)”, the figures for the equilibrium dissociation constant (Kd) in assay [1] and in assay [2] were 497000 nM and 243000 nM, respectively.

In turn, “ColQ1-CU G472V Y270A (domain or fragment)” showed a fold increase in affinity against ColQ1-CU G472V (WT) in assay [1] of 8 fold.
